Biological target: mERK2 9m peptide (synthetic short-chain peptide for CD8-positive T-cell stimulation, …) (mouse)
Assay: cell-based or functional assay

Question: Which percentage of IFN-γ-producing cells in CD90.1-positive CD8-positive infused T cells of the draining lymph node after stimulation with mERK2 9m peptide (intracellular cytokine staining) does the source give for “mutated ERK2-specific T-cell receptor of DUC18 transgenic mice, on CD8-positive T cells (TCR)” here?
Answer: 80%
